# Experimental data reported in US20200262877A1, “ION CHANNEL-BINDING PEPTIDES AND METHODS OF USE THEREOF” (priority 2017, published 2020).
# How the values were obtained:
# α3β4 = biological target: T1, α3β4 (Homo sapiens, UniProt P30926+P32297); experiment: Ion channel panel (IonWorks Barracuda): α3β4; format: cell-based; conditions: 100% = no change, <100% = inhibition
# T1 construct: host or cells: HEK293 or CHO
# Method in brief: (§1)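 Peptides were tested in duplicate at final 20 μM and 200 nM, with concentration set by amino acid analysis, in HEPES-buffered saline. They were applied for at least 5 min to HEK293 or CHO cells transfected with each channel. Currents were expressed as % inhibition, 1-(Ipeptide/Icontrol)×100, or % activation, Ipeptide/Icontrol×100, against a channel-matched reference compound.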
# TRPA1 = biological target: T2, TRPA1 (Homo sapiens, UniProt O75762); experiment: Ion channel panel (IonWorks Barracuda): TRPA1; format: cell-based; conditions: 100% = no change, <100% = inhibition
# T2 construct: host or cells: HEK293 or CHO
# Method in brief: as §1
# Kir2.1 = biological target: T3, Kir2.1 (Homo sapiens, UniProt P63252); experiment: Ion channel panel (IonWorks Barracuda): Kir2.1; format: cell-based; conditions: 100% = no change, <100% = inhibition
# T3 construct: host or cells: HEK293 or CHO
# Method in brief: as §1
# Nav1.5 = Nav1.5 (Homo sapiens, UniProt Q14524); experiment: in vitro; conditions: 100% = no change; for Activity of Nav1.5 with peptide, expressed as a percentage of the reference compound: peptide at 0.2 μM; for Activity of Nav1.5 with peptide (percentage of the reference compound): peptide at 20 μM
# Method in brief: as §1
# hERG = hERG (Homo sapiens, UniProt Q12809); experiment: in vitro; conditions: 100% = no change, <100% = inhibition
# Method in brief: as §1
# α4β2 = biological target: T4, α4β2 (Homo sapiens, UniProt P17787+P43681); experiment: Ion channel panel (IonWorks Barracuda): α4β2; format: cell-based; conditions: 100% = no change, <100% = inhibition
# T4 construct: host or cells: HEK293 or CHO
# Method in brief: as §1
# Cav2.1 = biological target: T5, Cav2.1 (Homo sapiens, UniProt O00555); experiment: cell-based; conditions: 100% = no change, <100% = inhibition
# T5 construct: host or cells: HEK293 or CHO
# Method in brief: as §1
# Kv2.1 = biological target: T6, Kv2.1 (Homo sapiens, UniProt Q14721); experiment: cell-based; conditions: 100% = no change, <100% = inhibition
# T6 construct: host or cells: HEK293 or CHO
# Method in brief: as §1
# Cav2.2 = biological target: T7, Cav2.2 (Homo sapiens, UniProt Q00975); experiment: cell-based; conditions: 100% = no change, <100% = inhibition
# T7 construct: host or cells: HEK293 or CHO
# Method in brief: as §1
# NR2A = biological target: T8, NR2A (Homo sapiens, UniProt Q12879); experiment: Ion channel panel (IonWorks Barracuda): NR2A; format: cell-based; conditions: 100% = no change, <100% = inhibition
# T8 construct: host or cells: HEK293 or CHO
# Method in brief: as §1
# 5HT3a = biological target: T9, 5HT3a (Homo sapiens, UniProt P46098); experiment: Ion channel panel (IonWorks Barracuda): 5HT3a; format: cell-based
# T9 construct: host or cells: HEK293 or CHO
# T9 sequence (P46098 whole entry, looked up): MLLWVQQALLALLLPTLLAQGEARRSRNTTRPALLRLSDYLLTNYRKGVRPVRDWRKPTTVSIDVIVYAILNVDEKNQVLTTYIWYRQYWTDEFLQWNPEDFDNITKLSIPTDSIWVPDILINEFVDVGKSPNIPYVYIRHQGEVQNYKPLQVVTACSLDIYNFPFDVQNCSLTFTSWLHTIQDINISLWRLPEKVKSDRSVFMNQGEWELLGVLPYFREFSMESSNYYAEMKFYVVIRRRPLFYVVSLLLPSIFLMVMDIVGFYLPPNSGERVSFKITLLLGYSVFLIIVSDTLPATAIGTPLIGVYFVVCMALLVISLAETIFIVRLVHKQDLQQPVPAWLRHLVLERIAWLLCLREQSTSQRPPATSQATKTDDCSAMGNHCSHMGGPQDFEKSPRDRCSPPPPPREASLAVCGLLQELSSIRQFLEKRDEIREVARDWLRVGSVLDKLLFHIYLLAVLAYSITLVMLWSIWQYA
# Method in brief: as §1
# Kv1.1 = biological target: T10, Kv1.1 (Homo sapiens, UniProt Q09470); experiment: cell-based; format: cell-based; conditions: 100% = no change, <100% = inhibition
# T10 construct: host or cells: HEK293 or CHO
# Method in brief: as §1
# Kv1.3 = biological target: T11, Kv1.3 (Homo sapiens, UniProt P22001); experiment: cell-based; format: cell-based; conditions: 100% = no change, <100% = inhibition
# T11 construct: host or cells: HEK293 or CHO
# Method in brief: as §1
# Kv1.2 = biological target: T12, Kv1.2 (Homo sapiens, UniProt P16389); experiment: cell-based; format: cell-based; conditions: 100% = no change, <100% = inhibition
# T12 construct: host or cells: HEK293 or CHO
# Method in brief: as §1
# GABA = experiment: Ion channel panel (IonWorks Barracuda): GABA; format: cell-based; conditions: 100% = no change, <100% = inhibition
# Method in brief: as §1
# Nav1.7 = biological target: T13, Nav1.7 (Homo sapiens, UniProt Q15858); experiment: cell-based; format: cell-based; conditions: 100% = no change; for Activity of Nav1.7 with peptide, expressed as a percentage of the reference compound: peptide at 0.2 μM; for Activity of Nav1.7 with peptide (percentage of the reference compound): peptide at 20 μM
# T13 construct: host or cells: HEK293 or CHO
# NR2B = biological target: T14, NR2B (Homo sapiens, UniProt Q13224); experiment: Ion channel panel (IonWorks Barracuda): NR2B; format: cell-based; conditions: 100% = no change, <100% = inhibition
# T14 construct: host or cells: HEK293 or CHO
# Method in brief: as §1
# TRPV1 = biological target: T15, TRPV1 (Homo sapiens, UniProt Q8NER1); experiment: Ion channel panel (IonWorks Barracuda): TRPV1; format: cell-based; conditions: 100% = no change, <100% = inhibition
# T15 construct: host or cells: HEK293 or CHO
# Method in brief: as §1
# [1] = first of two Nav1.5 columns (probably TP1)
# [2] = second of two Nav1.5 columns (probably TP2)
# [3] = first of two Nav1.7 columns (probably TP1)
# [4] = second of two Nav1.7 columns (probably TP2)
# T13 sequence (Q15858 whole entry): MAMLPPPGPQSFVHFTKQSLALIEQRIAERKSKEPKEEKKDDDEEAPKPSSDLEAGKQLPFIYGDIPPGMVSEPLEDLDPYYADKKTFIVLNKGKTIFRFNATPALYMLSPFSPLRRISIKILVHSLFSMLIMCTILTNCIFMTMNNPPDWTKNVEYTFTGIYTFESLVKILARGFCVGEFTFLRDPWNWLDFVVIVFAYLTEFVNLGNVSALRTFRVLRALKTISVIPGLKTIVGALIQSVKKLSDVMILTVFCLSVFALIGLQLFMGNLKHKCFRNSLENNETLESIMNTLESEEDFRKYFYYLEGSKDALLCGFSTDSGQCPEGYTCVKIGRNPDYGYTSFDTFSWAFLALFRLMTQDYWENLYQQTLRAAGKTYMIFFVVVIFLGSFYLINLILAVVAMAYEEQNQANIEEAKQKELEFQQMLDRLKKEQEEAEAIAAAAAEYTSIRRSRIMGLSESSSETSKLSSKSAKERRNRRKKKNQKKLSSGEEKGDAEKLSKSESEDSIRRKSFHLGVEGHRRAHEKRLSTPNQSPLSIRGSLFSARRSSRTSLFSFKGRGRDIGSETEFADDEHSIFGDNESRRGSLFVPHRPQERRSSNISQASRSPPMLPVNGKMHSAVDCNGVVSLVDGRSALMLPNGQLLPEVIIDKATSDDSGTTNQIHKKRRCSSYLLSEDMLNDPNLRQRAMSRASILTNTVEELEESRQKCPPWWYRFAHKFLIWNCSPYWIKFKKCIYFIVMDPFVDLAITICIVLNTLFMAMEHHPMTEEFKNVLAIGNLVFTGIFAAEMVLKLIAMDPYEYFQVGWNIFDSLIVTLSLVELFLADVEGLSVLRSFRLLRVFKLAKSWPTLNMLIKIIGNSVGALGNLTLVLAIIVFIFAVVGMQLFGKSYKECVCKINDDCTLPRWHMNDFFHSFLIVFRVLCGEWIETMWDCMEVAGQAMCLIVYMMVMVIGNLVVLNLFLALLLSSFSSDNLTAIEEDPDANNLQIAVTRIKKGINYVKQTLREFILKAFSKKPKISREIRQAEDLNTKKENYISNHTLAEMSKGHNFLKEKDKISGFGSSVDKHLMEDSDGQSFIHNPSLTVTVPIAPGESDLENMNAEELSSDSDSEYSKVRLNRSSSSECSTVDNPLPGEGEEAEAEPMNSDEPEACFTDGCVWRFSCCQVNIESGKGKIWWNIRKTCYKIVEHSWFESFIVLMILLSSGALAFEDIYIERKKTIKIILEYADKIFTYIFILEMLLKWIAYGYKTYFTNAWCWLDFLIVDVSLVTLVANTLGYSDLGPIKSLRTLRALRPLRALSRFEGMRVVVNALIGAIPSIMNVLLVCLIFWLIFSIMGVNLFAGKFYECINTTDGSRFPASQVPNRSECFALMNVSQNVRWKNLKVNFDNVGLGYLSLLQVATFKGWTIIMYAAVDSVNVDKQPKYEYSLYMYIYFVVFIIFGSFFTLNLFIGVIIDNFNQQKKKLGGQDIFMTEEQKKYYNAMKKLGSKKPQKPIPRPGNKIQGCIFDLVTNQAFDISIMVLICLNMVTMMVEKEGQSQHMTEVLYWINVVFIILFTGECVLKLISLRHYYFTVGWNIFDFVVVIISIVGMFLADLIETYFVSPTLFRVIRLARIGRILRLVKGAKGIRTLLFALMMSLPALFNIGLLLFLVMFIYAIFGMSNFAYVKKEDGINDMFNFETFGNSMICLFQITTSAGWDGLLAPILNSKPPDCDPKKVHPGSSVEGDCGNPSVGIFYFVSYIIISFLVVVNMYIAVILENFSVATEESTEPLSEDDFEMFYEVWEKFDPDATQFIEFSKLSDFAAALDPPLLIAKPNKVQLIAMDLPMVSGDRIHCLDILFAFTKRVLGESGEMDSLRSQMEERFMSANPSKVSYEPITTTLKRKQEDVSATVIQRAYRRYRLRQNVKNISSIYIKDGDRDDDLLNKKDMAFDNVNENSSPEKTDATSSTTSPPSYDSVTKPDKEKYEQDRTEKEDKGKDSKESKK
# Chain of Nav1.5 (Q14524 whole entry): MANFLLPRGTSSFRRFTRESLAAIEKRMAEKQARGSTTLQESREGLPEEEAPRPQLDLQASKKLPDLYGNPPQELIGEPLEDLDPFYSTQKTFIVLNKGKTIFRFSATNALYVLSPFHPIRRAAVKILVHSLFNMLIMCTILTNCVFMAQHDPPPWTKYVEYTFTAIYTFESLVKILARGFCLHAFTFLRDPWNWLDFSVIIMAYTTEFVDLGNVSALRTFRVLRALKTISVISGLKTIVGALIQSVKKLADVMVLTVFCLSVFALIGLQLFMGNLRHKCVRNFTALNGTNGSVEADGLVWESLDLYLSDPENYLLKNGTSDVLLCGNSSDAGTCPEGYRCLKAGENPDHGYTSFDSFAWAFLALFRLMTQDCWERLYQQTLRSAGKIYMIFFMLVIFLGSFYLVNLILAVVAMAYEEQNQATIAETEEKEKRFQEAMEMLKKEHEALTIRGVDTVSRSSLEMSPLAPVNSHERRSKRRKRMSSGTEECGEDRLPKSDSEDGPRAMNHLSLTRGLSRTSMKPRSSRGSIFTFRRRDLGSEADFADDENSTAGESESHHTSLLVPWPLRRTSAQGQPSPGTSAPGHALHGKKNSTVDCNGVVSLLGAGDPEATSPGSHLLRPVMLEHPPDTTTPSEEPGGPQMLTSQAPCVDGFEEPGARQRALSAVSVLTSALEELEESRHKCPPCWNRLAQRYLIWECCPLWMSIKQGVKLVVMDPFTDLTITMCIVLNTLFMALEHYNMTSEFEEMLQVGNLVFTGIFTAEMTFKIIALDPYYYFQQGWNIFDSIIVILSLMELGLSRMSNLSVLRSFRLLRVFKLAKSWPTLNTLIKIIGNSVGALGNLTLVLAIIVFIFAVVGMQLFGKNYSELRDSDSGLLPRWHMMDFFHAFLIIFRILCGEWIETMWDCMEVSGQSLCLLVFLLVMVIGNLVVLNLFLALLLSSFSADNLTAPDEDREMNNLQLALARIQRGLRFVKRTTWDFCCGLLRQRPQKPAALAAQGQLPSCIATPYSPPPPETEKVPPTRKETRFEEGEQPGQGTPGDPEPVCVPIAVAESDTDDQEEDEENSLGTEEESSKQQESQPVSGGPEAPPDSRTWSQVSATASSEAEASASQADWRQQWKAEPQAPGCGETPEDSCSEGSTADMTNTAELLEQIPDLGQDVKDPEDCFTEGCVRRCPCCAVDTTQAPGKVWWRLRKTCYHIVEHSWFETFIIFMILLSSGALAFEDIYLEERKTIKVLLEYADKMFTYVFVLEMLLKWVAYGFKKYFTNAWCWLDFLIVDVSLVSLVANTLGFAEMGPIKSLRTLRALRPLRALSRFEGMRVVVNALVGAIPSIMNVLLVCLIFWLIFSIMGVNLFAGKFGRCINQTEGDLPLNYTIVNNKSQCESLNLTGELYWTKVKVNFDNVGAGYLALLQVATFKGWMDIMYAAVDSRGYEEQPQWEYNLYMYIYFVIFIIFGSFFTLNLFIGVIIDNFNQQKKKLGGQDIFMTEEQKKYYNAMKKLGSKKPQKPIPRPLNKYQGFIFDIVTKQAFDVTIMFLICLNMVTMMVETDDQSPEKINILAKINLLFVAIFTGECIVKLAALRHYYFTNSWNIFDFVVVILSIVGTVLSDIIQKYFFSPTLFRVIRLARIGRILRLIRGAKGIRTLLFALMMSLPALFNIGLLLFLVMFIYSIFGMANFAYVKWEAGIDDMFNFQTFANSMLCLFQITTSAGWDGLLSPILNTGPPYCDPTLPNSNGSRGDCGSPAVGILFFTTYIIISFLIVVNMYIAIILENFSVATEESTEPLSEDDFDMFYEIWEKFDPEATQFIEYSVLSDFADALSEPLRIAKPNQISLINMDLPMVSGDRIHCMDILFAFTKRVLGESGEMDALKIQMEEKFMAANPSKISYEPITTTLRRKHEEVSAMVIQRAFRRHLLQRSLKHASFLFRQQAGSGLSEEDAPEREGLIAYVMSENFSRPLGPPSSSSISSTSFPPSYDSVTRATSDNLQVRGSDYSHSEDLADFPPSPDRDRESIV
# Chain of hERG (Q12809 whole entry): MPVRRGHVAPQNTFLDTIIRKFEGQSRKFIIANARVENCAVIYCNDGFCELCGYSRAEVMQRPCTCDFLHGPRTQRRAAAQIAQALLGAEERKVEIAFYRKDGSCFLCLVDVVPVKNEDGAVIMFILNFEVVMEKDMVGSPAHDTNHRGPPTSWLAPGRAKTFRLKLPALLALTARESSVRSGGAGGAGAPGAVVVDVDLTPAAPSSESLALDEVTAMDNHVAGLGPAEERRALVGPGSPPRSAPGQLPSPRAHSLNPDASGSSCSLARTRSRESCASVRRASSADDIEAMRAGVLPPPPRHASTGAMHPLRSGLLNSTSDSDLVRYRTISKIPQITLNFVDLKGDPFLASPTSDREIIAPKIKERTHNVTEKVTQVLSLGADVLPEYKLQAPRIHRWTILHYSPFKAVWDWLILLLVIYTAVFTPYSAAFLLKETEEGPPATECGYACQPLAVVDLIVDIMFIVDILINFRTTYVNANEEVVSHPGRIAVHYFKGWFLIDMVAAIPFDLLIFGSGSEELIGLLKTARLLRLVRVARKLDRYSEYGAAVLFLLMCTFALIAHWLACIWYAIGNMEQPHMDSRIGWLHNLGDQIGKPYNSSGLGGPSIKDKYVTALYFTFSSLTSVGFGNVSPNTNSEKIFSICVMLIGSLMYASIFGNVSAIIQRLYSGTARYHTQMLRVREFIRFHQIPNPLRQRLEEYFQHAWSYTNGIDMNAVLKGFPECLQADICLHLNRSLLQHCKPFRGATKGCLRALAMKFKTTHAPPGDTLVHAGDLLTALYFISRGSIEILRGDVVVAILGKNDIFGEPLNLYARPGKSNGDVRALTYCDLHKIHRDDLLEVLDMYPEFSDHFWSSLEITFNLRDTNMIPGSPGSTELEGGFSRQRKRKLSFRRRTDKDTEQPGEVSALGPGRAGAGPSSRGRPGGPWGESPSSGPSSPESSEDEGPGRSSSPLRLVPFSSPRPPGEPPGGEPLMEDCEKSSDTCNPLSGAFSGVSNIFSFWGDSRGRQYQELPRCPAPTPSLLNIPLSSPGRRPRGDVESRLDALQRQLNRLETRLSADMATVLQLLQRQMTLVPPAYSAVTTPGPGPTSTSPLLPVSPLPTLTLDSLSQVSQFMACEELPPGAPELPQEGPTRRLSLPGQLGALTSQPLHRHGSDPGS
substance,measurement,setting,value
30 (GSQVSTNKKCSNTSQCYKTCEKVVGVAAGKCMNGKCICYP) [compound 30],"Activity of a3b4 with peptide, expressed as a percentage of the reference compound",α3β4; peptide at 0.2 μM,91%
same,Activity of a3b4 with peptide (percentage of the reference compound),α3β4; peptide at 20 μM,101%
same,"Activity of TRPA1 with peptide, expressed as a percentage of the reference compound",TRPA1; peptide at 0.2 μM,118%
same,Activity of TRPA1 with peptide (percentage of the reference compound),TRPA1; peptide at 20 μM,111%
same,"Activity of Kir2.1 with peptide, expressed as a percentage of the reference compound",Kir2.1; peptide at 0.2 μM,102%
same,Activity of Kir2.1 with peptide (percentage of the reference compound),Kir2.1; peptide at 20 μM,93%
same,"Activity of Nav1.5 with peptide, expressed as a percentage of the reference compound",Nav1.5; [1],105%
same,"Activity of Nav1.5 with peptide, expressed as a percentage of the reference compound",Nav1.5; [2],102%
same,Activity of Nav1.5 with peptide (percentage of the reference compound),Nav1.5; [1],94%
same,Activity of Nav1.5 with peptide (percentage of the reference compound),Nav1.5; [2],96%
same,"Activity of hERG with peptide, expressed as a percentage of the reference compound",hERG; peptide at 0.2 μM,95%
same,Activity of hERG with peptide (percentage of the reference compound),hERG; peptide at 20 μM,95%
same,"Activity of a4b2 with peptide, expressed as a percentage of the reference compound",α4β2; peptide at 0.2 μM,89%
same,Activity of a4b2 with peptide (percentage of the reference compound),α4β2; peptide at 20 μM,92%
same,"Activity of Cav2.1 with peptide, expressed as a percentage of the reference compound",Cav2.1; peptide at 0.2 μM,111%
same,Activity of Cav2.1 with peptide (percentage of the reference compound),Cav2.1; peptide at 20 μM,103%
same,"Activity of Kv2.1 with peptide, expressed as a percentage of the reference compound",Kv2.1; peptide at 0.2 μM,107%
same,Activity of Kv2.1 with peptide (percentage of the reference compound),Kv2.1; peptide at 20 μM,106%
same,"Activity of Cav2.2 with peptide, expressed as a percentage of the reference compound",Cav2.2; peptide at 0.2 μM,96%
same,Activity of Cav2.2 with peptide (percentage of the reference compound),Cav2.2; peptide at 20 μM,101%
same,"Activity of NR2A with peptide, expressed as a percentage of the reference compound",NR2A; peptide at 0.2 μM,111%
same,Activity of NR2A with peptide (percentage of the reference compound),NR2A; peptide at 20 μM,98%
same,Activity of 5HT3a with peptide (percentage of the reference compound),5HT3a,91%
same,"Activity of 5HT3a with peptide, expressed as a percentage of the reference compound",5HT3a,71%
same,"Activity of Kv1.1 with peptide, expressed as a percentage of the reference compound",Kv1.1; peptide at 0.2 μM,98%
same,Activity of Kv1.1 with peptide (percentage of the reference compound),Kv1.1; peptide at 20 μM,102%
same,"Activity of Kv1.3 with peptide, expressed as a percentage of the reference compound",Kv1.3; peptide at 0.2 μM,89%
same,Activity of Kv1.3 with peptide (percentage of the reference compound),Kv1.3; peptide at 20 μM,71%
same,"Activity of Kv1.2 with peptide, expressed as a percentage of the reference compound",Kv1.2; peptide at 0.2 μM,110%
same,Activity of Kv1.2 with peptide (percentage of the reference compound),Kv1.2; peptide at 20 μM,92%
same,"Activity of GABA with peptide, expressed as a percentage of the reference compound",GABA; peptide at 0.2 μM,102%
same,Activity of GABA with peptide (percentage of the reference compound),GABA; peptide at 20 μM,114%
same,"Activity of Nav1.7 with peptide, expressed as a percentage of the reference compound",Nav1.7; [3],103%
same,"Activity of Nav1.7 with peptide, expressed as a percentage of the reference compound",Nav1.7; [4],125%
same,Activity of Nav1.7 with peptide (percentage of the reference compound),Nav1.7; [3],84%
same,Activity of Nav1.7 with peptide (percentage of the reference compound),Nav1.7; [4],54%
same,"Activity of NR2B with peptide, expressed as a percentage of the reference compound",NR2B; peptide at 0.2 μM,92%
same,Activity of NR2B with peptide (percentage of the reference compound),NR2B; peptide at 20 μM,88%
same,"Activity of TRPV1 with peptide, expressed as a percentage of the reference compound",TRPV1; peptide at 0.2 μM,107%
same,Activity of TRPV1 with peptide (percentage of the reference compound),TRPV1; peptide at 20 μM,84%
